Results on one molecule are retold here after patent US20110243955A1 (FUSION ANTIBODIES, published 2011).

The target in test [1] is T1, recombinant human Cat S (Calbiochem) (human, UniProt P25774 115-331, limits assumed).
T1 construct: Bought enzyme used in the fluorimetric activity assays; also called cathepsin S
Briefly: fluorimetric enzyme assay with Cbz-Val-Val-Arg-AMC; progress curves of a slow-binding inhibitor fitted by non-linear regression (Morrison and Walsh, GraFit). The method, then: FIG. 12. Quantification of inhibitory activity of Cat S MAb1 (Mab 1E11). Rates from the progress curves of (Mab 1E11) [FIG. 11], which were indicative of a slow binding inhibitor, were fitted by non-linear regression using GraFit software according to the method of Morrison and Walsh, 1988.
The inhibitory effect of the monoclonal antibodies were determined by a flurometric assay, using a Cat S synthetic substrate Z-Val-Val-Arg-AMC (Bachem) and recombinant human Cat S (Calbiochem). The recombinant Cat S enzyme was activated at 37° C. in sodium acetate buffer (100 mM sodium acetate, 1 mM EDTA, 0.1% Brij90, pH 5.5), and 2 mM dithiothreitol (DTT) for 30 mins prior to assay. Assays were carried out using 190 μl of sodium acetate/DTT buffer (90:1), 1 μl of activated Cat S, 12.5 μl of 10 mM Cbz-Val-Val-Arg-AMC substrate and 50 μl of non-purified monoclonal antibody supernatant. Fluorescence was measured at 375 nm excitation and 460 nm emission wavelengths every 5 mins for 4 hrs (FIG. 8). […]
The purified monoclonal antibodies were analysed by flurometric assay for quantification of their ability to inhibit the activity of Cat S. The principles of this assay are the same as that previously used. Fluorescence was measured at 375 nm excitation and 460 nm emission wavelengths every minute for 1 hr. […]

Test [2] deals with T2, human cathepsin K (recombinant) (human, UniProt P43235 115-329, limits assumed).
T2 construct: Called 'purified CatK' in the activity assay; also called CatK; Cat K
T2 sequence (looked up): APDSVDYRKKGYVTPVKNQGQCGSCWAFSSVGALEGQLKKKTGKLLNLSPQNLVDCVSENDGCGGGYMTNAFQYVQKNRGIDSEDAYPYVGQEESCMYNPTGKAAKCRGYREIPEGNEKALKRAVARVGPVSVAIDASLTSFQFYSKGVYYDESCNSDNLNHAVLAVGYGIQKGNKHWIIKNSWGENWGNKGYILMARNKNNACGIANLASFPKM
Briefly: western blot of recombinant cathepsins. On the procedure: (§1) FIG. 15 MAb1 specifically binds Cat S on western blot. The antibody was used to probe against human cathepsin B, L, S and K (100 ng each).
(§2) Western blots were performed as described before to show specificity of the antibody binding to Cat S and not to CatB, L or K. Briefly, 100 ng of recombinant Cat S, K, L and B were loaded onto a SDS-PAGE gel, then transferred onto Hybond-C Extra nitrocellulose membrane (Amersham. Biosciences). The membrane was blocked by incubation in PBS/5% marvel for 1 hr at room temperature, after which it was rinsed briefly in PBS. The monoclonal antibodies were used at a 1:500 dilution in PBS and incubated on the membrane overnight at 4° C. while gently rocking. The blot was then rinsed three times with PBS/1% marvel and 0.1% Tween-20 and then incubated with the goat anti-mouse HRP conjugated secondary antibody at a 1:3000 dilution for 1 hr at room temperature while shaking. The blot was then rinsed three times with the PBS/1% marvel and 0.1% Tween-20 solution, followed by a short rinse in PBS. The blot was incubated with ECL plus substrate (Amersham Biosciences) for 5 mins at room temperature before development using Kodak photographic film under safe light conditions (FIG. 15).

Test [3] addresses human cathepsin B (recombinant) (human, UniProt P07858 80-333). As to the kind of experiment: western blot of recombinant cathepsins. The method, then:
as §1, §2

In test [4] the target is T3, human cathepsin L (recombinant) (human, UniProt P07711 114-333, limits assumed).
T3 construct: Called 'purified CatL' in the activity assay; also called CatL; Cat L
T3 sequence (P07711 114-333 limits assumed): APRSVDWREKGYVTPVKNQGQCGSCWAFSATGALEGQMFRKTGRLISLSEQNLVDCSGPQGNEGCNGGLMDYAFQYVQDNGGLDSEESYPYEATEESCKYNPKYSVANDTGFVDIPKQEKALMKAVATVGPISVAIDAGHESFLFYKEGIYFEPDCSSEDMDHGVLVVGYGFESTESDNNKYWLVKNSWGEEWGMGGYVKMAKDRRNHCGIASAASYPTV
Briefly: western blot of recombinant cathepsins. The method, then: as §1, §2

T1 sequence (P25774 115-331 limits assumed): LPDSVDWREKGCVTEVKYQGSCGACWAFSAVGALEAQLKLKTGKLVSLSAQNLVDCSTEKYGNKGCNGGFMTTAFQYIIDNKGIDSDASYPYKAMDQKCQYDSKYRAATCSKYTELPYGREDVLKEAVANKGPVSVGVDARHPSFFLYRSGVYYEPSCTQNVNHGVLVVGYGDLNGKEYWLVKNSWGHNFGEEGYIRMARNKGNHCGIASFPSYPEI

B1: Cat S inhibitory monoclonal antibody Mab 1E11 (antibody, V domains shown)
VH: VQLQESGGVLVKPGGSLKLSCAASGFAFSSYDMSWVRQTPEKRLEWVAYITTGGVNTYYPDTVKGRFTISRDNAKNTLYLQMSSLKSEDTAMYYCARHSYFDYWGQGTTVTVSS
VL: DVLMTQTPLSLPVSLGDQASISCRSSQSLVHSNGNTYLHWYLQKPGQSPKLLIYKVSNRFSGVPDRFSGSGSGTDFTLKISRVEAEDLGVYFCSQTTHVPPTFGSGTKLEIKR
notes: Whole mouse monoclonal antibody from a hybridoma (BALB/C mice), purified from supernatant; also called Cat S MAb1
Take B1: the Ki in test [1] stood at 0.533 µM. Further, the binding result in test [2], in test [3] and in test [4] was “no binding” throughout.
